Data published in paper PMC3093450 (Nature, 2011).

T1: His6-Sec24p (yeast, UniProt P40482 1-926)
T1 sequence (looked up): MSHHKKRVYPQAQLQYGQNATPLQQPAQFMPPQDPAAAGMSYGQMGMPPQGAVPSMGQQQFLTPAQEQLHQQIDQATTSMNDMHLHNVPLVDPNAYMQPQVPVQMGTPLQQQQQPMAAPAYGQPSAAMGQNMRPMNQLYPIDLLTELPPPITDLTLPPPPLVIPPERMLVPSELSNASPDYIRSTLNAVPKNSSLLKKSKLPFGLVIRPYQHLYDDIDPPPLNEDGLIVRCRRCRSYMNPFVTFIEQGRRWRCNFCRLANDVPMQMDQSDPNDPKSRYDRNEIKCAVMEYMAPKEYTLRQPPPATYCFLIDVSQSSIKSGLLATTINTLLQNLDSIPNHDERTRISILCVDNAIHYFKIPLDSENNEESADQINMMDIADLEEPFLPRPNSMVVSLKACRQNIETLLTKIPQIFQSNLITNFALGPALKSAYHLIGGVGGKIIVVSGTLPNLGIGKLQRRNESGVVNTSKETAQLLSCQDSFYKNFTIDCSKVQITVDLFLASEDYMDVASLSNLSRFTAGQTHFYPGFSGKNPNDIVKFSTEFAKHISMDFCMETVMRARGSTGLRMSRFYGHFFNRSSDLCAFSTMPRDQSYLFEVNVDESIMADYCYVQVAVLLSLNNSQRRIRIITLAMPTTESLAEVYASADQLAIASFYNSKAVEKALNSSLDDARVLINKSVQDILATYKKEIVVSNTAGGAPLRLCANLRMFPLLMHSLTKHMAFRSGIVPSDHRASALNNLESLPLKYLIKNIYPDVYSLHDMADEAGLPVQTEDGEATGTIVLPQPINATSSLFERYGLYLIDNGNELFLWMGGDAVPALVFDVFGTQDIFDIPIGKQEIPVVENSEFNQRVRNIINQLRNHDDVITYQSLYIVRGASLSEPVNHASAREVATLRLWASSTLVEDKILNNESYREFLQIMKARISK

B1: GST-Sec23p (natural protein, yeast)
chain: DFETNEDINGVRFTWNVFPSTRSDANSNVVPVGCLYTPLKEYDELNVAPYNPVVCSGPHCKSILNPYCVIDPRNSSWSCPICNSRNHLPPQYTNLSQENMPLELQSTTIEYITNKPVTVPPIFFFVVDLTSETENLDSLKESIITSLSLLPPNALIGLITYGNVVQLHDLSSETIDRCNVFRGDREYQLEALTEMLTGQKPTGPGGAASHLPNAMNKVTPFSLNRFFLPLEQVEFKLNQLLENLSPDQWSVPAGHRPLRATGSALNIASLLLQGCYKNIPARIILFASGPGTVAPGLIVNSELKDPLRSHHDIDSDHAQHYKKACKFYNQIAQRVAANGHTVDIFAGCYDQIGMSEMKQLTDSTGGVLLLTDAFSTAIFKQSYLRLFAKDEEGYLKMAFNGNMAVKTSKDLKVQGLIGHASAVKKTDANNISESEIGIGATSTWKMASLSPYHSYAIFFEIANTAANSNPMMSAPGSADRPHLAYTQFITTYQHSSGTNRIRVTTVANQLLPFGTPAIAASFDQEAAAVLMARIAVHKAETDDGADVIRWLDRTLIKLCQKYADYNKDDPQSFRLAPNFSLYPQFTYYLRRSQFLSVFNNSPDETAFYRHIFTREDTTNSLIMIQPTLTSFSMEDDPQPVLLDSISVKPNTILLLDTFFFILIYHGEQIAQWRKAGYQDDPQYADFKALLEEPKLEAAELLVDRFPLPRFIDTEAGGSQARFLLSKLNPSDNYQDMARGGSTIVLTDDVSLQNFMTHLQQVAVSGQA

Columns and labels:
GST-Sec23p = molecular target: B1; assay: pull-down
His6-Sec24p = molecular target: T1, His6-Sec24p; assay: pull-down

Kd (GST-Sec23p) [nM] | binding result (His6-Sec24p) | Binder
43 |  | His6-Hrr25p (enzyme, yeast, UniProt P29295 1-494, looked up) MDLRVGRKFRIGRKIGSGSFGDIYHGTNLISGEEVAIKLESIRSRHPQLDYESRVYRYLSGGVGIPFIRWFGREGEYNAMVIDLLGPSLEDLFNYCHRRFSFKTVIMLALQMFCRIQYIHGRSFIHRDIKPDNFLMGVGRRGSTVHVIDFGLSKKYRDFNTHRHIPYRENKSLTGTARYASVNTHLGIEQSRRDDLESLGYVLIYFCKGSLPWQGLKATTKKQKYDRIMEKKLNVSVETLCSGLPLEFQEYMAYCKNLKFDEKPDYLFLARLFKDLSIKLEYHNDHLFDWTMLRYTKAMVEKQRDLLIEKGDLNANSNAASASNSTDNKSETFNKIKLLAMKKFPTHFHYYKNEDKHNPSPEEIKQQTILNNNAASSLPEELLNALDKGMENLRQQQPQQQVQSSQPQPQPQQLQQQPNGQRPNYYPEPLLQQQQRDSQEQQQQVPMATTRATQYPPQINSNNFNTNQASVPPQMRSNPQQPPQDKPAGQSIWL
 | binds | GST-Sec23p S742D (natural protein, yeast) DFETNEDINGVRFTWNVFPSTRSDANSNVVPVGCLYTPLKEYDELNVAPYNPVVCSGPHCKSILNPYCVIDPRNSSWSCPICNSRNHLPPQYTNLSQENMPLELQSTTIEYITNKPVTVPPIFFFVVDLTSETENLDSLKESIITSLSLLPPNALIGLITYGNVVQLHDLSSETIDRCNVFRGDREYQLEALTEMLTGQKPTGPGGAASHLPNAMNKVTPFSLNRFFLPLEQVEFKLNQLLENLSPDQWSVPAGHRPLRATGSALNIASLLLQGCYKNIPARIILFASGPGTVAPGLIVNSELKDPLRSHHDIDSDHAQHYKKACKFYNQIAQRVAANGHTVDIFAGCYDQIGMSEMKQLTDSTGGVLLLTDAFSTAIFKQSYLRLFAKDEEGYLKMAFNGNMAVKTSKDLKVQGLIGHASAVKKTDANNISESEIGIGATSTWKMASLSPYHSYAIFFEIANTAANSNPMMSAPGSADRPHLAYTQFITTYQHSSGTNRIRVTTVANQLLPFGTPAIAASFDQEAAAVLMARIAVHKAETDDGADVIRWLDRTLIKLCQKYADYNKDDPQSFRLAPNFSLYPQFTYYLRRSQFLSVFNNSPDETAFYRHIFTREDTTNSLIMIQPTLTSFSMEDDPQPVLLDSISVKPNTILLLDTFFFILIYHGEQIAQWRKAGYQDDPQYADFKALLEEPKLEAAELLVDRFPLPRFIDTEAGGSQARFLLSKLNPSDNYQDMARGGDTIVLTDDVSLQNFMTHLQQVAVSGQA
 | binds | B1
 | binds | GST-Sec23p S742D/T747E (natural protein, yeast) DFETNEDINGVRFTWNVFPSTRSDANSNVVPVGCLYTPLKEYDELNVAPYNPVVCSGPHCKSILNPYCVIDPRNSSWSCPICNSRNHLPPQYTNLSQENMPLELQSTTIEYITNKPVTVPPIFFFVVDLTSETENLDSLKESIITSLSLLPPNALIGLITYGNVVQLHDLSSETIDRCNVFRGDREYQLEALTEMLTGQKPTGPGGAASHLPNAMNKVTPFSLNRFFLPLEQVEFKLNQLLENLSPDQWSVPAGHRPLRATGSALNIASLLLQGCYKNIPARIILFASGPGTVAPGLIVNSELKDPLRSHHDIDSDHAQHYKKACKFYNQIAQRVAANGHTVDIFAGCYDQIGMSEMKQLTDSTGGVLLLTDAFSTAIFKQSYLRLFAKDEEGYLKMAFNGNMAVKTSKDLKVQGLIGHASAVKKTDANNISESEIGIGATSTWKMASLSPYHSYAIFFEIANTAANSNPMMSAPGSADRPHLAYTQFITTYQHSSGTNRIRVTTVANQLLPFGTPAIAASFDQEAAAVLMARIAVHKAETDDGADVIRWLDRTLIKLCQKYADYNKDDPQSFRLAPNFSLYPQFTYYLRRSQFLSVFNNSPDETAFYRHIFTREDTTNSLIMIQPTLTSFSMEDDPQPVLLDSISVKPNTILLLDTFFFILIYHGEQIAQWRKAGYQDDPQYADFKALLEEPKLEAAELLVDRFPLPRFIDTEAGGSQARFLLSKLNPSDNYQDMARGGDTIVLEDDVSLQNFMTHLQQVAVSGQA
 | binds | GST-Sec23p T747E (natural protein, yeast) DFETNEDINGVRFTWNVFPSTRSDANSNVVPVGCLYTPLKEYDELNVAPYNPVVCSGPHCKSILNPYCVIDPRNSSWSCPICNSRNHLPPQYTNLSQENMPLELQSTTIEYITNKPVTVPPIFFFVVDLTSETENLDSLKESIITSLSLLPPNALIGLITYGNVVQLHDLSSETIDRCNVFRGDREYQLEALTEMLTGQKPTGPGGAASHLPNAMNKVTPFSLNRFFLPLEQVEFKLNQLLENLSPDQWSVPAGHRPLRATGSALNIASLLLQGCYKNIPARIILFASGPGTVAPGLIVNSELKDPLRSHHDIDSDHAQHYKKACKFYNQIAQRVAANGHTVDIFAGCYDQIGMSEMKQLTDSTGGVLLLTDAFSTAIFKQSYLRLFAKDEEGYLKMAFNGNMAVKTSKDLKVQGLIGHASAVKKTDANNISESEIGIGATSTWKMASLSPYHSYAIFFEIANTAANSNPMMSAPGSADRPHLAYTQFITTYQHSSGTNRIRVTTVANQLLPFGTPAIAASFDQEAAAVLMARIAVHKAETDDGADVIRWLDRTLIKLCQKYADYNKDDPQSFRLAPNFSLYPQFTYYLRRSQFLSVFNNSPDETAFYRHIFTREDTTNSLIMIQPTLTSFSMEDDPQPVLLDSISVKPNTILLLDTFFFILIYHGEQIAQWRKAGYQDDPQYADFKALLEEPKLEAAELLVDRFPLPRFIDTEAGGSQARFLLSKLNPSDNYQDMARGGSTIVLEDDVSLQNFMTHLQQVAVSGQA
